Molecular target: human ACE2 receptor protein (hACE2) pre-coated on the plate of the GenScript sVNT C-Pass Kit (human) (UniProt Q9BYF1)
Assay: modified GenScript sVNT (FIG. 28), competitor HRP-RBD

Sequence of UniProt Q9BYF1 (Q9BYF1 18-740 limits assumed): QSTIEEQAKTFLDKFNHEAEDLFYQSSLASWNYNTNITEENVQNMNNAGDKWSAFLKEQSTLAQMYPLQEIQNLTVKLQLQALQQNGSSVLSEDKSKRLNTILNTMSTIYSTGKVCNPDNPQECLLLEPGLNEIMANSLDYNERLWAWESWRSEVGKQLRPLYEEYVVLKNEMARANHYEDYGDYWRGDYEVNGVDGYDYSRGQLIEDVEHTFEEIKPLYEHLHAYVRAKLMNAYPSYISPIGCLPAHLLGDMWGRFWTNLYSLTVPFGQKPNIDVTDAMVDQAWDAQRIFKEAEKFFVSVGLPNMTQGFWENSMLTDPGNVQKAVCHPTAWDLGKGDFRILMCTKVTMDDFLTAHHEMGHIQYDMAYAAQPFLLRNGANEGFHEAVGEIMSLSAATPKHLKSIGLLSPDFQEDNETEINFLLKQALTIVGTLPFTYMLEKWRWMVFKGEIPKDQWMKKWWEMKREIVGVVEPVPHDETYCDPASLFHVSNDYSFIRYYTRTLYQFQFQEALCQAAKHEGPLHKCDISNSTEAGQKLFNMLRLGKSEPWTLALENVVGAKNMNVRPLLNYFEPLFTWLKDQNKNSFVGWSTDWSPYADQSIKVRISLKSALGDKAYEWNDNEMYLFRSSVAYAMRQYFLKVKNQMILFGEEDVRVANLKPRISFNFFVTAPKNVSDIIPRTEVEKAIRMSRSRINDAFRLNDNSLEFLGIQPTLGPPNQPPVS

Question: For “Serum from uninoculated (non-targeted) chickens (antibody)”, which percent inhibition of RBD:ACE2 binding is on record?
Answer: < 5%
